In patent US20090105152A1 one finds intracellular Ca ion level-increasing activity [specific activity to Metastin (1-54)] (relative to Metastin (1-54)) data, which are given here for eight molecules.

B1: des(1)-Ac-[D-Tyr2,Orn3,Thr5,AzaGly7,Arg(Me)9,Trp10]MS10 (peptide)
peptide: Ac-[dY][Orn]NTF[azaGly]L[Arg(Me)]W-NH2
SMILES: CNC(=N)NCCC[C@H](NC(=O)[C@H](CC(C)C)NC(=O)NNC(=O)[C@H](Cc1ccccc1)NC(=O)[C@@H](NC(=O)[C@H](CC(N)=O)NC(=O)[C@H](CCCN)NC(=O)[C@@H](Cc1ccc(O)cc1)NC(C)=O)[C@@H](C)O)C(=O)N[C@@H](Cc1c[nH]c2ccccc12)C(N)=O
B2: des(1)-Glycoloyl-[D-Tyr2,Hyp3,Thr5,AzaGly7,Arg(Me)9,Trp10]MS10 (peptide)
peptide: Glycolyl-[dY][Hyp]NTF[azaGly]L[Arg(Me)]W-NH2
SMILES: CNC(=N)NCCC[C@H](NC(=O)[C@H](CC(C)C)NC(=O)NNC(=O)[C@H](Cc1ccccc1)NC(=O)[C@@H](NC(=O)[C@H](CC(N)=O)NC(=O)[C@@H]1C[C@@H](O)CN1C(=O)[C@@H](Cc1ccc(O)cc1)NC(=O)CO)[C@@H](C)O)C(=O)N[C@@H](Cc1c[nH]c2ccccc12)C(N)=O
B3: des(1-2)-Ac-[D-Tyr3,Thr5,AzaGly7,Arg(Me)9,Trp10]MS10 (peptide)
peptide: Ac-[dY]NTF[azaGly]L[Arg(Me)]W-NH2
SMILES: CNC(=N)NCCC[C@H](NC(=O)[C@H](CC(C)C)NC(=O)NNC(=O)[C@H](Cc1ccccc1)NC(=O)[C@@H](NC(=O)[C@H](CC(N)=O)NC(=O)[C@@H](Cc1ccc(O)cc1)NC(C)=O)[C@@H](C)O)C(=O)N[C@@H](Cc1c[nH]c2ccccc12)C(N)=O
B4: des(1-2)-Ac-[Acp3,Thr5,AzaGly7,Arg(Me)9,Trp10]MS10 (peptide)
peptide: Ac-[Ahx]NTF[azaGly]L[Arg(Me)]W-NH2
SMILES: CNC(=N)NCCC[C@H](NC(=O)[C@H](CC(C)C)NC(=O)NNC(=O)[C@H](Cc1ccccc1)NC(=O)[C@@H](NC(=O)[C@H](CC(N)=O)NC(=O)CCCCCNC(C)=O)[C@@H](C)O)C(=O)N[C@@H](Cc1c[nH]c2ccccc12)C(N)=O
B5: des(1)-Ac-[D-Tyr2,Tyr(PO3H2)3,Thr5,AzaGly7,Arg(Me)9,Trp10]MS10 (peptide)
peptide: Ac-[dY][pY]NTF[azaGly]L[Arg(Me)]W-NH2
SMILES: CNC(=N)NCCC[C@H](NC(=O)[C@H](CC(C)C)NC(=O)NNC(=O)[C@H](Cc1ccccc1)NC(=O)[C@@H](NC(=O)[C@H](CC(N)=O)NC(=O)[C@H](Cc1ccc(OP(=O)(O)O)cc1)NC(=O)[C@@H](Cc1ccc(O)cc1)NC(C)=O)[C@@H](C)O)C(=O)N[C@@H](Cc1c[nH]c2ccccc12)C(N)=O
B6: des(1)-Ac-[D-Tyr2,Thr3,Thr5,AzaGly7,Arg(Me)9,Trp10]MS10 (peptide)
peptide: Ac-[dY]TNTF[azaGly]L[Arg(Me)]W-NH2
SMILES: CNC(=N)NCCC[C@H](NC(=O)[C@H](CC(C)C)NC(=O)NNC(=O)[C@H](Cc1ccccc1)NC(=O)[C@@H](NC(=O)[C@H](CC(N)=O)NC(=O)[C@@H](NC(=O)[C@@H](Cc1ccc(O)cc1)NC(C)=O)[C@@H](C)O)[C@@H](C)O)C(=O)N[C@@H](Cc1c[nH]c2ccccc12)C(N)=O

Square brackets hold non-standard residues; d marks the D form. * marks the point of attachment. pY = N[C@@H](Cc1ccc(OP(=O)(O)O)cc1)C(=O)O; Ala(Pip) = (4-piperidin-1-yl)alanine; Arg(Me) = CNC(=N)NCCC[C@H](N)C(=O)O; Hyp = O=C(O)[C@@H]1C[C@@H](O)CN1; His(3Me) = 3-methylhistidine; Orn = NCCC[C@H](N)C(=O)O; Glycolyl = O=C(CO)*; Ahx = NCCCCCC(=O)O; azaGly = NNC(=O)O

This assay deals with human OT7T175 (metastin receptor) (human) (UniProt Q969F8). The experiment in a line: cell-based or functional assay.
Chain of human OT7T175 (metastin receptor) (human) (Q969F8 whole entry L364H): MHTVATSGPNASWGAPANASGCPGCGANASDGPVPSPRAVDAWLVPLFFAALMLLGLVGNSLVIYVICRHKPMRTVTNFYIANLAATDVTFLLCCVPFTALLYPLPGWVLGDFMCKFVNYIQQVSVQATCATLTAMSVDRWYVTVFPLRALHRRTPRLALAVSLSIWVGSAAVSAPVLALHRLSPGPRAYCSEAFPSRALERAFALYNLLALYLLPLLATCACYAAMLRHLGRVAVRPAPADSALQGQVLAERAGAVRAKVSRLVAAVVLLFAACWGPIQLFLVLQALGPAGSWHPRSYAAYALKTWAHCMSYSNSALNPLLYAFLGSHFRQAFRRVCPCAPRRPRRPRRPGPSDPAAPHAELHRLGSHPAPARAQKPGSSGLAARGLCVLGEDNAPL
As for B1, the intracellular Ca ion level-increasing activity [specific activity to Metastin (1-54)] (relative to Metastin (1-54)) is 1.9.

As to B2, the intracellular Ca ion level-increasing activity [specific activity to Metastin (1-54)] (relative to Metastin (1-54)) was 1.5.

In the case of B3, the intracellular Ca ion level-increasing activity [specific activity to Metastin (1-54)] (relative to Metastin (1-54)) was 1.8.

For Ac-[dY][Ala(Pip)]NTF[azaGly]L[Arg(Me)]W-NH2 (also: position 2 DL, both configurations) [des(1)-Ac-[D-Tyr2,DL-Ala(Pip)3,Thr5,AzaGly7,Arg(Me)9,Trp10]MS10], the intracellular Ca ion level-increasing activity [specific activity to Metastin (1-54)] (relative to Metastin (1-54)) stood at 2.

B4 registered an intracellular Ca ion level-increasing activity [specific activity to Metastin (1-54)] (relative to Metastin (1-54)) of 3.7.

B5 came in with an intracellular Ca ion level-increasing activity [specific activity to Metastin (1-54)] (relative to Metastin (1-54)) of 1.3.

Regarding B6, the intracellular Ca ion level-increasing activity [specific activity to Metastin (1-54)] (relative to Metastin (1-54)) turned out to be 1.3.

As for Ac-[dY][His(3Me)]NTF[azaGly]L[Arg(Me)]W-NH2 [des(1)-Ac-[D-Tyr2,His(3Me)3,Thr5,AzaGly7,Arg(Me)9,Trp10]MS10], the intracellular Ca ion level-increasing activity [specific activity to Metastin (1-54)] (relative to Metastin (1-54)) is 1.1.
